In patent US20250228941, “CELLULAR THERAPY” (UNIVERSITÄt BASEL, published 2025):

Key:
Details in all cases: tags: His-tag, Abcam ab198455, labeled with RED-Tris-NTA
[1] = molecular target: T1, PHGDH (D-3-phosphoglycerate dehydrogenase) (Homo sapiens, UniProt O43175 SEQ:1-533); experiment: MST; high response amplitude; fitted to Kd model but no value given; 50 nM PHGDH, RNA 13-850 nM; 10 mM Tris HCl, 50 mM KCl, 0.5 mM EDTA, 0.1 mg/ml BSA, 10% glycerol
T1 sequence: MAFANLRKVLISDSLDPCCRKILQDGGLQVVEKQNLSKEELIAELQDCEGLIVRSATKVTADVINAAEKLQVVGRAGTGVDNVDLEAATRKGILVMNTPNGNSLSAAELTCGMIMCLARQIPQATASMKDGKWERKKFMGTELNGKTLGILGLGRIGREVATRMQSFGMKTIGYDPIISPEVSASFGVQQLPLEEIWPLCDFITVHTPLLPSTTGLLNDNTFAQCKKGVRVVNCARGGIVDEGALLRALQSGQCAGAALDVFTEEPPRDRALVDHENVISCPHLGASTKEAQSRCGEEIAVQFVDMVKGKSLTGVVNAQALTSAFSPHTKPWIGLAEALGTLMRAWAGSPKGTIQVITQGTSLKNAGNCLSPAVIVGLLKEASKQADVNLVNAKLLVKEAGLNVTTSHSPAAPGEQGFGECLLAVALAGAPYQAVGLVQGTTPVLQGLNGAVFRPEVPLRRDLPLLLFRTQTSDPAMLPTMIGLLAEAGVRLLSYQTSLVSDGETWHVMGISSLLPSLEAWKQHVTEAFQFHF
Procedure: (§1) Data were fitted to the Kd model.
(§2) Microscale thermophoresis experiments were performed using a NanoTemper® Monolith NT.115 (NanoTemper Tenchologies, Germany) with blue and red filters. His-tagged PHGDH protein was labeled using the Monolith His-Tag labeling Kit RED-Tris-NTA 2nd generation (SKU: MO-L018), according to manufacturer's protocol (Step B, Step C). Briefly, 90 μl of PHGDH protein (200 nM) was mixed with 90 μl of dye (100 nM) and incubated for 30 min at RT. Samples were centrifuged for 10 min at 4° C. at 15.000×g and transferred into a fresh tube. RNA was brought to a concentration of 1700 nM and a serial dilution of 1:2 over 16 steps in binding buffer (10 mM Tris HCl, 50 mM KCl, 0.5 mM EDTA, 0.1 mg/ml BSA, 10% (v/v) Rnase/Dnase free glycerol) was performed. Fluorescently labeled protein was added at a final concentration of 50 nM to each tube. 16 capillaries were loaded with IRF1 3′UTR RNA (highest concentration 850 nM) and PHGDH protein (50 nM). Samples were measured with the following settings: 20% LED/excitation and medium MST power. At the final dye concentration of 25 nM, the expected fluorescence intensity at 20% LED/excitation is around 300 counts on a Monolith NT.115.

[2] = molecular target: T1, PHGDH (D-3-phosphoglycerate …); experiment: MST; mutation impeded binding; RNA up to 850 nM, same buffer
Procedure: as §1, §2

[3] = molecular target: T1, PHGDH (D-3-phosphoglycerate …); experiment: MST; low response amplitude; no AU-rich elements; RNA up to 850 nM, same buffer
Procedure: as §2

AGGAAUUGAACUUUUAAUUGCAUUUAAUAAACUGUAUGUAAAUAGUCA (ssRNA) [IRF1 3'UTR fragment 3 (Fg3)]
binding result [1]: binds

AGGAAUUGAACCCUUAAUUGCAUUUAAUAAACUGUAUGUAAAUAGUCA (ssRNA) [mutated fragment 3 (muFg3)]
binding result [2]: no binding

ACAUGUGCCAGCUAAGCACUUGAAAUGUGGCCAGUGCAAUA (ssRNA) [IRF1 3'UTR fragment 4 (Fg4)]
binding result [3]: no binding
